B1: human CNGA2 subunit (natural protein)
chain: MTEKTNGVKSSPANNHNHHAPPAIKANGKDDHRTSSRPHSAADDDTSSELQRLADVDAPQQGRSGFRRIVRLVGIIREWANKNFREEEPRPDSFLERFRGPELQTVTTQEGDGKGDKDGEDKGTKKKFELFVLDPAGDWYYCWLFVIAMPVLYNWCLLVARACFSDLQKGYYLVWLVLDYVSDVVYIADLFIRLRTGFLEQGLLVKDTKKLRDNYIHTLQFKLDVASIIPTDLIYFAVDIHSPEVRFNRLLHFARMFEFFDRTETRTNYPNIFRISNLVLYILVIIHWNACIYYAISKSIGFGVDTWVYPNITDPEYGYLAREYIYCLYWSTLTLTTIGETPPPVKDEEYLFVIFDFLIGVLIFATIVGNVGSMISNMNATRAEFQAKIDAVKHYMQFRKVSKGMEAKVIRWFDYLWTNKKTVDEREILKNLPAKLRAEIAINVHLSTLKKVRIFHDCEAGLLVELVLKLRPQVFSPGDYICRKGDIGKEMYIIKEGKLAVVADDGVTQYALLSAGSCFGEISILNIKGSKMGNRRTANIRSLGYSDLFCLSKDDLMEAVTEYPDAKKVLEERGREILMKEGLLDENEVATSMEVDVQEKLGQLETNMETLYTRFGRLLAEYTGAQQKLKQRITVLETKMKQNNEDDYLSDGMNSPELAAADEP
notes: CNGA2, human; Expressed from a tri-cistronic construct with P2A peptides between neighbouring genes; remnants of P2A may remain at chain ends (surmise); Two copies stand in the heterotetramer; also called A2L; A2R; source: HEK293F, BacMam, tri-cistronic P2A construct, purified within the CNGA2/A4/B1b complex (anti-Flag, Strep-Tactin, SEC); not shown: Flag, N-terminal, kept

Assays:
human CNGA2 subunit = biological target: B1; assay: cryo-EM structure; CNGA2/A4/B1b after removal of CaM by EGTA and SEC, incubated with 5 mM cAMP; cAMP-bound open state; details: both partners purified
[1] = biological target: T1, human CNGB1b subunit (shorter CNGB1 variant, amino acids 456-1251) (human, UniProt Q14028 456-1251); assay: cryo-EM structure; CNGA2/A4/B1b co-expressed with CaM, complex purified with 2 mM CaCl2 in digitonin; apo (no cAMP), closed state; focused refinement around the CLZ region; details: both partners purified
T1 construct: CNGB1b, olfactory shorter variant of human CNGB1 lacking the N-terminal GARP domain, amino acids 456-1251 of CNGB1; Expressed from a tri-cistronic construct with P2A peptides between neighbouring genes; remnants of P2A may remain at chain ends (surmise); source: HEK293F, BacMam, tri-cistronic P2A construct, purified within the CNGA2/A4/B1b complex (anti-Flag, Strep-Tactin, SEC); not shown: Flag, …

human calmodulin = biological target: T2, human calmodulin (human, UniProt P0DP23 1-149); assay: as above; details: both partners purified
T2 construct: calmodulin, human; The purified CaM (800 nM) and the endogenous HEK293 CaM of the patch-clamp recordings are written with this molecule; also called CaM; Ca^2+/CaM; source: HEK293F, BacMam, co-expressed with CNGA2/A4/B1b, co-purified (anti-Flag, Strep-Tactin, SEC); not shown: Strep, C-terminal, kept

[2] = biological target: the molecule itself; assay: as above

T1 sequence (Q14028 456-1251, stated change not applied): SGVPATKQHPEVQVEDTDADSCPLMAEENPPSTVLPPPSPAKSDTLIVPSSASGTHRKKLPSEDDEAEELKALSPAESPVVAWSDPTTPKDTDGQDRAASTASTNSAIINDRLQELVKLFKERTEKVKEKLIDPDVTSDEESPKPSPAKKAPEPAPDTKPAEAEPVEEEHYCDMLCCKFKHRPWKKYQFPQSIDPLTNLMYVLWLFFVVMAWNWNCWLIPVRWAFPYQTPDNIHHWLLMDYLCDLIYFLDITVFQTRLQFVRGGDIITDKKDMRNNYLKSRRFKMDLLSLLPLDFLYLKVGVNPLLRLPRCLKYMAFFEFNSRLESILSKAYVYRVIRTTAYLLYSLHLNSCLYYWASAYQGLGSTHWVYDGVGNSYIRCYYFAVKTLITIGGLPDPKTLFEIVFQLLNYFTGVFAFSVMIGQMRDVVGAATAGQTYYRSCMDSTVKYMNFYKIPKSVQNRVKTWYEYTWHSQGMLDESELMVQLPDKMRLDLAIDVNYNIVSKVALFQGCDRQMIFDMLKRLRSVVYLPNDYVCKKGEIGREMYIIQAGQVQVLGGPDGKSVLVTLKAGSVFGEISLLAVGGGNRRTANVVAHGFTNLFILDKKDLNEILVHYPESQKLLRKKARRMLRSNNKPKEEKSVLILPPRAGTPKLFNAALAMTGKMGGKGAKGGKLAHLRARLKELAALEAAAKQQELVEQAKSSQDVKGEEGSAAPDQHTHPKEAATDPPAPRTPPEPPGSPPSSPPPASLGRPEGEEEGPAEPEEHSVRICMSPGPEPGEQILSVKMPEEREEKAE

Row | binding result (human CNGA2 subunit) | binding result [1] | binding result (human calmodulin) | Binder | binding result [2]
1 | binds | binds | binds | human CNGA4 subunit (natural protein, CNGA4, human; Expressed from a tri-cistronic construct with P2A peptides between neighbouring genes; remnants of P2A may remain at chain ends (surmise); source: HEK293F, BacMam, tri-cistronic P2A construct, purified within the CNGA2/A4/B1b complex (anti-Flag, Strep-Tactin, SEC); not shown: Flag, N-terminal, kept) MSQDTKVKTTESSPPAPSKARKLLPVLDPSGDYYYWWLNTMVFPVMYNLIILVCRACFPDLQHGYLVAWLVLDYTSDLLYLLDMVVRFHTGFLEQGILVVDKGRISSRYVRTWSFFLDLASLMPTDVVYVRLGPHTPTLRLNRFLRAPRLFEAFDRTETRTAYPNAFRIAKLMLYIFVVIHWNSCLYFALSRYLGFGRDAWVYPDPAQPGFERLRRQYLYSFYFSTLILTTVGDTPPPAREEEYLFMVGDFLLAVMGFATIMGSMSSVIYNMNTADAAFYPDHALVKKYMKLQHVNRKLERRVIDWYQHLQINKKMTNEVAILQHLPERLRAEVAVSVHLSTLSRVQIFQNCEASLLEELVLKLQPQTYSPGEYVCRKGDIGQEMYIIREGQLAVVADDGITQYAVLGAGLYFGEISIINIKGNMSGNRRTANIKSLGYSDLFCLSKEDLREVLSEYPQAQTIMEEKGREILLKMNKLDVNAEAAEIALQEATESRLRGLDQQLDDLQTKFARLLAELESSALKIAYRIERLEWQTREWPMPEDLAEADDEGEPEEGTSKDEEGRASQEGPPGPE | –
2 | – | binds | – | B1 | binds
